Assay results reported in FireProtDB (doi:10.1002/prot.340220405).

Conditions: Escherichia coli (strain K12); pH 8; 25 °C; Urea; CD; Na-PIPES 50 mM; reversible: yes; whole UniProt chain shown

B1: Chemotaxis protein CheY wild type, P0AE67 (protein)
chain: MADKELKFLVVDDFSTMRRIVRNLLKELGFNNVEEAEDGVDALNKLQAGGYGFVISDWNMPNMDGLELLKTIRADGAMSALPVLMVTAEAKKENIIAAAQAGASGYVVKPFTAATLEEKLNKIFEKLGM
- denaturant m value: 1.6 kcal/mol/M
- denaturant midpoint (higher = more stable): 3.5 M
- unfolding free energy: 5.6 kcal/mol
